The source of these data is PMC6501848 (Nature cell biology, 2019).

As usually defined, the Kd is the free concentration of one partner at which half of the binding sites on the other are occupied at equilibrium, for simple one-to-one binding. High values mean weaker binding, low ones tighter binding. As a reminder, the stoichiometry N is the number of molecules, sites or subunits per partner or assembly.

One data set concerns the target INF2-Nterm (human, UniProt Q27J81 1-420). As to the kind of experiment: fluorescence polarisation. On the technique in general: Polarisation of emitted light reports the rotation of a fluorescent probe.
The target of data set [1] is chicken skeletal muscle actin (chicken, UniProt P68139 1-377). As to the kind of experiment: pull-down.
Data set [2] deals with fluorescently-labeled rabbit skeletal muscle actin (TMR-actin) (rabbit, UniProt P68135 1-377, TAMRA label (TAMRA NHS ester)). As to the kind of experiment: pull-down.
Data set [3] has as its target rabbit skeletal muscle actin (rabbit, UniProt P68135 1-377). As to the kind of experiment: pull-down.
The data set “AUC” concerns the molecule itself. As to the kind of experiment: AUC.

Chain of INF2-Nterm (Q27J81 1-420): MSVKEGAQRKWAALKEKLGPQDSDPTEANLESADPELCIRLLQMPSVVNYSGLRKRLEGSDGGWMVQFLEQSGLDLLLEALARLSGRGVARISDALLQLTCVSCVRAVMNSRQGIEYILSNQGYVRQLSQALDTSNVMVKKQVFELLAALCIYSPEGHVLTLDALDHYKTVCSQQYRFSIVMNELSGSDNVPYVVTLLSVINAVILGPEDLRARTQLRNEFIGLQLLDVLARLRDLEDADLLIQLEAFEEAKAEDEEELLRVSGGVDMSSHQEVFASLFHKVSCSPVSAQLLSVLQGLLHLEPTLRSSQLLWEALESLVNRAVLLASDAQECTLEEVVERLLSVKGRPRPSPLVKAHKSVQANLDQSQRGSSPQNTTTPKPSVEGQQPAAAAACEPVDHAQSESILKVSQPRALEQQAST

B1: INF2-Cterm labeled with tetramethylrhodamine (domain or fragment)
chain: not shown
modifications: tetramethylrhodamine-succinimide (TMR) label
In turn, B1 gave a Kd with INF2-Nterm of approximately 28 µM.

B2: human CAP2 with C-terminal GFP and Strep-tag II (natural protein)
chain: MANMQGLVERLERAVSRLESLSAESHRPPGNCGEVNGVIAGVAPSVEAFDKLMDSMVAEFLKNSRILAGDVETHAEMVHSAFQAQRAFLLMASQYQQPHENDVAALLKPISEKIQEIQTFRERNRGSNMFNHLSAVSESIPALGWIAVSPKPGPYVKEMNDAATFYTNRVLKDYKHSDLRHVDWVKSYLNIWSELQAYIKEHHTTGLTWSKTGPVASTVSAFSVLSSGPGLPPPPPPLPPPGPPPLFENEGKKEESSPSRSALFAQLNQGEAITKGLRHVTDDQKTYKNPSLRAQGGQTQSPTKSHTPSPTSPKSYPSQKHAPVLELEGKKWRVEYQEDRNDLVISETELKQVAYIFKCEKSTIQIKGKVNSIIIDNCKKLGLVFDNVVGIVEVINSQDIQIQVMGRVPTISINKTEGCHIYLSEDALDCEIVSAKSSEMNILIPQDGDYREFPIPEQFKTAWDGSKLITEPAEIMA
Take B2: the binding result in data set [1], in data set [2] and in data set [3] was “binds” throughout. In “AUC”, the “stoichiometry N” value amounted to 6.
